Target: Dengue NS1 (NS1-D) (Dengue virus serotype 4, UniProt P09866 775-1126)
Assay: electrochemical impedance spectroscopy; PBS; 1000 ng/mL NS1-D; dRct 114.1 ± 0.2%; LoD 0.21 ng/mL; PBS or commercial human serum; aptamer immobilized at 4 °C in 0.8 M PB, 1.0 M NaCl, 5 mM MgCl2, 1 mM EDTA, pH 7; aptamer:total thiol 1:250; assay temperature not stated
Conditions: protein: commercial; chain copies: 2

Chain of Dengue NS1 (NS1-D) (P09866 775-1126): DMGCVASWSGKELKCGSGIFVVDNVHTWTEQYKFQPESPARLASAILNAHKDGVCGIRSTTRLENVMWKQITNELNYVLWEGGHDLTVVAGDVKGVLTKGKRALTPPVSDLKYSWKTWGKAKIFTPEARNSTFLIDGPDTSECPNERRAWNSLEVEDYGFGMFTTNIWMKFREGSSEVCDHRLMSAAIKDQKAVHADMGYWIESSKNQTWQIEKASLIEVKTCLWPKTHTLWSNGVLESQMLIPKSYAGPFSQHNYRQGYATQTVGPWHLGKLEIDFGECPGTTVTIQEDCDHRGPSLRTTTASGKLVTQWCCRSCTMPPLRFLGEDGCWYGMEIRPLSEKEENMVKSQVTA

TTTTAGCGGATCCGATGGGTGGGGGGGTGGGTAGGATCCGCG (structured_DNA, 5'-HS-(CH2)6 thiol) [NS1 DNA aptamer]: binds.
